We go through two molecules from patent publication US20240327475A1 (UNIVERSITY OF MARYLAND COLLEGE PARK, published 2024).

Sequences and labels used below:
B1: ICAM-1 on human cells (HUVEC; human brain endothelial cells and astrocytes of the BBB model; iPS-derived neurons from a Gaucher patient) (receptor, UniProt P05362 28-532, looked up)
chain: QTSVSPSKVILPRGGSVLVTCSTSCDQPKLLGIETPLPKKELLLPGNNRKVYELSNVQEDSQPMCYSNCPDGQSTAKTFLTVYWTPERVELAPLPSWQPVGKNLTLRCQVEGGAPRANLTVVLLRGEKELKREPAVGEPAEVTTTVLVRRDHHGANFSCRTELDLRPQGLELFENTSAPYQLQTFVLPATPPQLVSPRVLEVDTQGTVVCSLDGLFPVSEAQVHLALGDQRLNPTVTYGNDSFSAKASVSVTAEDEGTQRLTCAVILGNQSQETLQTVTIYSFPAPNVILTKPEVSEGTEVTVKCEAHPRAKVTLNGVPAQPLGPRAQLLLKATPEDNGRSFSCSATLEVAGQLIHKNQTRELRVLYGPRLDERDCPGNWTWPENSQQTPMCQAWGNPLPELKCLKDGTFPLPIGESVTVTRDLEGTYLCRARSTQGEVTRKVTVNVLSPRYEIVIITVVAAAVIMGTAGLSTYLYNRQRKIKKYRLQQAQKGTPMKPNTQATPP
notes: whole, on cells; also called ICAM receptor; intercellular adhesion molecule-1
B2: targeted fusion GCase protein J in Example 1 (human GCase with five tandem-repeats of the 2γ3 ICAM-1-targeting peptide at the amino terminus), after … (enzyme)
chain: NNQKIVNIKEKVAQIEAGGGGSGGGGSNNQKIVNIKEKVAQIEAGGGGSGGGGSNNQKIVNIKEKVAQIEAGGGGSGGGGSNNQKIVNIKEKVAQIEAGGGGSGGGGSNNQKIVNIKEKVAQIEAGGGGSGGGGSGFLGARPCIPKSFGYSSVVCVCNATYCDSFDPPTFPALGTFSRYESTRSGRRMELSMGPIQANHTGTGLLLTLQPEQKFQKVKGFGGAMTDAAALNILALSPPAQNLLLKSYFSEEGIGYNIIRVPMASCDFSIRTYTYADTPDDFQLHNFSLPEEDTKLKIPLIHRALQLAQRPVSLLASPWTSPTWLKTNGAVNGKGSLKGQPGDIYHQTWARYFVKFLDAYAEHKLQFWAVTAENEPSAGLLSGYPFQCLGFTPEHQRDFIARDLGPTLANSTHHNVRLLMLDDQRLLLPHWAKVVLTDPEAAKYVHGIAVHWYLDFLAPAKATLGETHRLFPNTMLFASEACVGSKFWEQSVRLGSWDRGMQYSHSIITNLLYHVVGWTDWNLALNPEGGPNWVRNFVDSPIIVDITKDTFYKQPMFYHLGHFSKFIPEGSQRVGLVASQKNDLDAVALMHPDGSAVVVVLNRSSKDVPLTIKDPAVGFLETISPGYSIHTYLWRRQ
modifications: pre-labeled with 125Iodine

Assay [1] addresses T1, control non-targeted ASM (Olipudase); full recombinant ASM produced by He et al. (1999), which served as … (human, UniProt P17405 62-631).
T1 construct: also called control ASM
T1 sequence (looked up): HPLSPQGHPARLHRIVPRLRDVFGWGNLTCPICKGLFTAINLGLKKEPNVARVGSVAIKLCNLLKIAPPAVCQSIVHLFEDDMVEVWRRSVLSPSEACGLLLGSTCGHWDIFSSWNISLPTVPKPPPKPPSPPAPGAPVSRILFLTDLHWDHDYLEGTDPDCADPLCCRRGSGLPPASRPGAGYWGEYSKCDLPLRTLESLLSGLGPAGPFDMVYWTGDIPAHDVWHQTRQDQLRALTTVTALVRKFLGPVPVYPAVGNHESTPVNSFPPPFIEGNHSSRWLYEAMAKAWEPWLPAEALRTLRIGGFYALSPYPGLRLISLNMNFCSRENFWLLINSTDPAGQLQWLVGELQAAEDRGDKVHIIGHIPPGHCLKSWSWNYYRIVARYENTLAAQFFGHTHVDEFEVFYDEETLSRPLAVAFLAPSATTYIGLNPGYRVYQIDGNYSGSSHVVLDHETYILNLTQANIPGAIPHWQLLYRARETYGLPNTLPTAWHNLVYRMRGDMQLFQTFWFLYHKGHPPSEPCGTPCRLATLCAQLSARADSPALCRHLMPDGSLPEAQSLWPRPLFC
The assay is described as follows: Incubation with HUVEC cells (known to express ICAM-1) for 3 h at 37° C., then fixation, permeabilization and anti-ASM + FITC-secondary antibody staining (cell association and uptake).

In assay [2] the target is B1. The assay is described as follows: cell-based or functional assay.

For the molecule B1, in assay [1], the binding result is reported as “no binding”.

Regarding B2, the “association to iPS-derived neurons from a Gaucher patient, fold over control non-targeted enzyme” value in assay [2] was approximately 3 fold.
